{"source": "paper PMC4419654", "about": "“LSD1 and HY5 antagonistically regulate red light induced-programmed cell death in Arabidopsis” (Frontiers in Plant Science, 2015)", "proteins": {"B1": {"name": "lesion simulating disease 1 (LSD1) (natural protein, UniProt P94077 1-189, looked up)", "chain": "MKVADMQDQLVCHGCRNLLMYPRGASNVRCALCNTINMVPPPPPPHDMAHIICGGCRTMLMYTRGASSVRCSCCQTTNLVPAHSNQVAHAPSSQVAQINCGHCRTTLMYPYGASSVKCAVCQFVTNVNMSNGRVPLPTNRPNGTACPPSTSTSTPPSQTQTVVVENPMSVDESGKLVSNVVVGVTTDKK", "notes": "lesion simulating disease 1 (LSD1), C2C2 zinc finger protein with three zinc finger domains, Arabidopsis; detected with LSD1 antibody (Agrisera); source: endogenous, Arabidopsis WT plant total protein extract"}}, "target": "the molecule itself", "assay": "immunoblot of plant extract made without DTT; total protein of RL-treated WT plants extracted without DTT; the legend calls it an immunoprecipitation analysis; dimer and monomer LSD1 detected"}
{"protein": "B1", "values": [{"measurement": "stoichiometry N", "result": 2}]}
